Laboratory results as given in patent KR20220059888A (dated 2022).

Legend:
개 Tie2 단백질 = target: T1, 개 Tie2 단백질 (개 (dog), UniProt A0A8I3S0B4 27-1128); test: flow cytometry; HEK293T cells transfected with dog Tie2
T1 construct: whole, on cells; also called 다른 종 유래의 Tie2 단백질

마우스 Tie2 단백질 = target: T2, 마우스 Tie2 단백질 (마우스 (mouse), UniProt Q02858 23-1122); test: flow cytometry; HEK293T cells transfected with mouse Tie2
T2 construct: whole, on cells; also called 다른 종 유래의 Tie2 단백질

랫 Tie2 단백질 = target: T3, 랫 Tie2 단백질 (랫 (rat), UniProt A0ABK0L6J5 19-1116); test: flow cytometry; HEK293T cells transfected with rat Tie2
T3 construct: whole, on cells; also called 다른 종 유래의 Tie2 단백질

T2 sequence (Q02858 23-1122): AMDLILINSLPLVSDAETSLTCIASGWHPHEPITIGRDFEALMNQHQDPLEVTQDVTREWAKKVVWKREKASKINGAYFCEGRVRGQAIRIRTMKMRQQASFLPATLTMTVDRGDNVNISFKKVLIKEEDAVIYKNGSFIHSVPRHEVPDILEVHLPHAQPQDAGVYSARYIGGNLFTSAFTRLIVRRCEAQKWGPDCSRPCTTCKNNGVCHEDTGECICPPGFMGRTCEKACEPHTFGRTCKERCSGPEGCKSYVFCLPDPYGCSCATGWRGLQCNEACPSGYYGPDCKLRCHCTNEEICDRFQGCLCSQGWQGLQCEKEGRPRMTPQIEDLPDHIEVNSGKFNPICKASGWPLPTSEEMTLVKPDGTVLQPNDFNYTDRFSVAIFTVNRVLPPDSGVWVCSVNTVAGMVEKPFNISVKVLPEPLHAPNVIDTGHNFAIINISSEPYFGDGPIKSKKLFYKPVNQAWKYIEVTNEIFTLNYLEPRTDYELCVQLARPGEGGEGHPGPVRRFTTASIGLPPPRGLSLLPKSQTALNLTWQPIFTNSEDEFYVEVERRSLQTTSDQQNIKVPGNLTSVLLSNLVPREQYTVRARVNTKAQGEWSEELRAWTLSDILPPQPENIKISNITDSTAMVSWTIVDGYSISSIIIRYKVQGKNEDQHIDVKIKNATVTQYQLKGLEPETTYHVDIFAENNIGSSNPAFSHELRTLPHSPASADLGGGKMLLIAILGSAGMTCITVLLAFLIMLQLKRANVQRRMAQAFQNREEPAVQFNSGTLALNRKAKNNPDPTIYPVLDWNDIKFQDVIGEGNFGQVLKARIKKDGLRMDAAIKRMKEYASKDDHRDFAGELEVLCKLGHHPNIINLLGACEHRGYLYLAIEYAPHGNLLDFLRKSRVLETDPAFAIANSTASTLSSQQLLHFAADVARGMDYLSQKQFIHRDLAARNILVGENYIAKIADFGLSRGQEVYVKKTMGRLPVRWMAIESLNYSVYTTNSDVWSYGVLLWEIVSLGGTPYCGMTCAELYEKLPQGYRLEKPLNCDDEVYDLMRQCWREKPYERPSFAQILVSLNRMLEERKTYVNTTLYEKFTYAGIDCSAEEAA

B1: Ang1mab2-1 (antibody, human IgG1, kappa, V domains shown)
VH: QVQLVESGGGVVQPGRSLRLSCAASGFTFSSYAMHWVRQAPGKGLEWVAVISYDGSNKYYADSVKGRFTISRDNSKNTLYLQMNSLRAEDTAVYYCARQYSGVFEYWGQGTLITVSS
VL: DIQMTQSPDSLAVSLGERATINCKSSQSVLYRSNNRNYLAWYQQKLGQPPQLLIYWASTRESGVPDRFSGSGSGADFTLTISSLQAEDVAVYYCQQYFSIPYTFGQGTKLEIKR
notes: also called 제2 기본 항체
Question: Which results are given for B1?
Answer: binding result (개 Tie2 단백질): no binding (tested: 5-g/ml (so in the source)); binding result (마우스 Tie2 단백질): no binding (tested: 5-g/ml (so in the source)); binding result (랫 Tie2 단백질): no binding (tested: 5-g/ml (so in the source))
